Publication PMC12800186, “Intelectin-2 is a broad-spectrum antimicrobial lectin” (Nature Communications, 2026)
Values joined by “and” are separate entries in the source; they are usually repeats but may differ in a detail not shown here. Equal values may be shown once.

Legend:
[1] = target: the molecule itself; assay: not stated; recombinant StrepII-hItln2; covalent trimers and higher-order oligomers (Supplementary Fig. 8E, F)
[2] = target: the molecule itself; assay: cross-linking; 1 mg/mL mItln2 in HEPES/EDTA buffer with BS3 (0.1-5 mM), RT, 30 min; SDS-PAGE with DTT

| Protein | stoichiometry N [1] | stoichiometry N [2] |
| --- | --- | --- |
| StrepII-tagged human intelectin-2 (A177S, C311G) (natural protein, UniProt Q8WWU7 27-325, looked up, Human intelectin-2 (hItln2, ITLN2), cDNA AY358905; secreted from HEK293 cells; mass and extinction coefficient were calculated without the signal peptide; A177S introduces a glycosylation site, C311G removes an unpaired cysteine; For low pH and low salt experiments the protein was exchanged into PIPES buffer, pH 5.5; also called hItln2; StrepII-hItln2; source: suspension-adapted HEK293 cells, …) AAASSLEMLSREFETCAFSFSSLPRSCKEIKERCHSAGDGLYFLRTKNGVVYQTFCDMTSGGGGWTLVASVHENDMRGKCTVGDRWSSQQGNKADYPEGDGNWANYNTFGSAEAATSDDYKNPGYYDIQAKDLGIWHVPNKSPMQHWRNSSLLRYRTNTGFLQRLGHNLFGIYQKYPVKYRSGKCWNDNGPAIPVVYDFGDAKKTASYYSPYGQREFVAGFVQFRVFNNERAANALCAGIKVTGCNTEHHCIGGGGFFPQGKPRQCGDFSAFDWDGYGTHVKSSGSREITEAAVLLFYR | ≥ 3 |  |
| StrepII-tagged mouse intelectin-2 (natural protein, UniProt Q80ZA0 20-313, looked up, glycosylated (N-glycosylation examined with PNGase F), Mouse intelectin-2 (mItln2), GenBank AAO60215, UniProt Q80ZA0; amplified from the start to the stop codon and secreted from HEK293 cells; mass and extinction coefficient were calculated without the signal peptide; Non-covalent oligomers of variable size; also called mItln2; strep-mItln2; source: suspension-adapted HEK293 cells, transient transfection, purified from the expression medium …) AEENLDTNRWGNSFFSSLPRSCKEIKQEDTKAQDGLYFLRTENGVIYQTFCDMTTAGGGWTLVASVHENNLRGRCTVGDRWSSQQGNRADYPEGDGNWANYNTFGSAEGATSDDYKNPGYFDIQAENLGIWHVPNNSPLHTWRNSSLLRYRTFTGFLQRLGHNLFGLYQKYPVKYGEGKCWTDNGPAFPVVYDFGDAQKTASYYSPSGRNEFTAGYVQFRVFNNERAASALCAGVRVTGCNTEHHCIGGGGFFPEFDPEECGDFAAFDANGYGTHIRYSNSREITEAAVLLFYR |  | 2 and 3 and 6 |
